Experiments:
[1] = system: β-conglutin (lupin (species not stated)); assay: SPR; details: 1:1 kinetic model, protein immobilized, PBS (10 mM phosphate, 135 mM NaCl, 2.7 mM KCl, pH 7.4) + 1.5 mM MgCl2, MST +0.05% Tween-20, 25 C (20 mM KCl for TT derivatives), BLI +0.1% Tween-20, 30 C
[2] = system: β-conglutin (lupin (species not stated)); assay: BLI; details: 2:1 heterogeneous model, 30 C, 0.1% Tween-20, 5' TEG spacer, PBS (10 mM phosphate, 135 mM NaCl, 2.7 mM KCl, pH 7.4) + 1.5 mM MgCl2, MST +0.05% Tween-20, 25 C (20 mM KCl for TT derivatives), BLI +0.1% Tween-20, 30 C, SPR …
[3] = system: β-conglutin (lupin (species not stated)); assay: MST; details: 0.05% Tween-20, 25 C, Hill EC50 fit, PBS (10 mM phosphate, 135 mM NaCl, 2.7 mM KCl, pH 7.4) + 1.5 mM MgCl2, MST +0.05% Tween-20, 25 C (20 mM KCl for TT derivatives), BLI +0.1% Tween-20, 30 C, SPR …

Sequence	Kd [1] [nM]	Kd ([3]; 20 mM KCl) [nM]	also measured
TTGGTGGGGGTGGTT [TT-11-mer-TT]	53.7		
TTTTTTTTTTTTTTTGGTGGGGGTGG [Biotin-TEG-T15-11-mer]			Kd ([2]; first KD): 6.95 nM; Kd ([2]; second KD): 23.3 nM
GGTGGGGGTGG [Cy5-11-mer]			Kd ([3]; binding buffer): 1.05 nM
TTGGTGGGGGTGGTT [Cy5-TT-11-mer-TT]		2.71	
TTGGTGGGGGTGG [TT-11-mer]	7.28		
GGTGGGGGTGGTT [11-mer-TT]	84.9		
GGTGGGGGTGGTT [Cy5-11-mer-TT]		2.59	
TTGGTGGGGGTGG [Cy5-TT-11-mer]		1.88	
